Source: patent US20080112961A1 (MacroGenics, published 2008)
Numbering of substitutions follows the chain as printed. Names and notes keep the numbering of the source.

T1: FcγRIIB (form not stated) (UniProt P31994 43-217, limits assumed)
T1 construct: also called FcγRIIB (ELISA)
T1 sequence (looked up): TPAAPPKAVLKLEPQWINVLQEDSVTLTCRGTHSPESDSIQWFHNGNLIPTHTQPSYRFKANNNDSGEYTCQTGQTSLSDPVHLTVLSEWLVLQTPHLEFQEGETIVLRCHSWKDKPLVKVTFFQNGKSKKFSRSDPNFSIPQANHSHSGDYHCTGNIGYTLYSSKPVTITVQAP

B1: ch4-4-20 A231V, Q386H, V412M (antibody)
heavy: ASTKGPSVFPLAPSSKSTSGGTAALGCLVKDYFPEPVTVSWNSGALTSGVHTFPAVLQSSGLYSLSSVVTVPSSSLGTQTYICNVNHKPSNTKVDKKVEPKSCDKTHTCPPCPVPELLGGPSVFLFPPKPKDTLMISRTPEVTCVVVDVSHEDPEVKFNWYVDGVEVHNAKTKPREEQYNSTYRVVSVLTVLHQDWLNGKEYKCKVSNKALPAPIEKTISKAKGQPREPQVYTLPPSRDELTKNQVSLTCLVKGFYPSDIAVEWESNGHPENNYKTTPPVLDSDGSFFLYSKLTMDKSRWQQGNVFSCSVMHEALHNHYTQKSLSLSPGK
B2: ch4-4-20 V348M, K334N, F275I, Y202M, K147T (antibody)
chain: B1 heavy with K30T, V85M, V114A, F158I, K217N, V231M, H269Q, M295V
B3: ch4-4-20 V397M, T411A, S415N (antibody)
heavy: B1 heavy with V114A, H269Q, V280M, T294A, M295V, S298N
B4: ch4-4-20 V282E, V369I, L406F (antibody)
heavy: B1 heavy with V114A, V165E, V252I, H269Q, L289F, M295V
B5: ch4-4-20 F275I, K334N, V348M (antibody)
heavy: B1 heavy with V114A, F158I, K217N, V231M, H269Q, M295V
B6: ch4-4-20 T335N, K370E, A378V, T394M, S424L (antibody)
heavy: B1 heavy with V114A, T218N, K253E, A261V, H269Q, T277M, M295V, S307L
B7: ch4-4-20 P291S, K288E, H268L, A141V (antibody)
heavy: B1 heavy with A24V, V114A, H151L, K171E, P174S, H269Q, M295V
B8: ch4-4-20 K222N, T335N, K370E, A378V, T394M (antibody)
heavy: B1 heavy with K105N, V114A, T218N, K253E, A261V, H269Q, T277M, M295V
B9: ch4-4-20 D221Y, M252I, A330G, A339T, T359N, V422I, H433L (antibody)
heavy: B1 heavy with D104Y, V114A, M135I, A213G, A222T, T242N, H269Q, M295V, V305I, H316L
B10: ch4-4-20 F275L, Q362H, N384K, P396L (antibody)
heavy: B1 heavy with V114A, F158L, Q245H, N267K, H269Q, P279L, M295V
B11: ch4-4-20 K326Q, K334E, T359N, T366S (antibody)
heavy: B1 heavy with V114A, K209Q, K217E, T242N, T249S, H269Q, M295V
B12: ch4-4-20 A378V, N390I, V422I (antibody)
heavy: B1 heavy with V114A, A261V, H269Q, N273I, M295V, V305I
B13: ch4-4-20 K290T, N390I, P396L (antibody)
heavy: B1 heavy with V114A, K173T, H269Q, N273I, P279L, M295V
B14: ch4-4-20 K246N, Q419R, P396L (antibody)
heavy: B1 heavy with V114A, K129N, H269Q, P279L, M295V, Q302R
B15: ch4-4-20 K246R, S298N, I377F (antibody)
heavy: B1 heavy with V114A, K129R, S181N, I260F, H269Q, M295V
B16: ch4-4-20 V273I, K326E, L328I, P396L (antibody)
heavy: B1 heavy with V114A, V156I, K209E, L211I, H269Q, P279L, M295V
B17: ch4-4-20 R301H, K340E, D399E (antibody)
heavy: B1 heavy with V114A, R184H, K223E, H269Q, D282E, M295V
B18: ch4-4-20 P247L, A330T, S440G (antibody)
heavy: B1 heavy with V114A, P130L, A213T, H269Q, M295V, S323G
B19: ch4-4-20 K290E, V369A, T393A, P396L (antibody)
heavy: B1 heavy with V114A, K173E, V252A, H269Q, T276A, P279L, M295V
B20: ch4-4-20 K326I, S408N, P396L (antibody)
heavy: B1 heavy with V114A, K209I, H269Q, P279L, S291N, M295V
B21: ch4-4-20 P247L, I253N, K334N (antibody)
heavy: B1 heavy with V114A, P130L, I136N, K217N, H269Q, M295V
B22: ch4-4-20 F243L, V305I, A378D, F404S, P396L (antibody)
heavy: B1 heavy with V114A, F126L, V188I, A261D, H269Q, P279L, F287S, M295V
notes: also called MgFc54
B23: ch4-4-20 D280E, S354F, A431D, L441I (antibody)
heavy: B1 heavy with V114A, D163E, S237F, H269Q, M295V, A314D, L324I
B24: ch4-4-20 P244H, L358M, V379M, N384K, V397M (antibody)
heavy: B1 heavy with V114A, P127H, L241M, V262M, N267K, H269Q, V280M, M295V
B25: ch4-4-20 P247L, W313R, E388G (antibody)
heavy: B1 heavy with V114A, P130L, W196R, H269Q, E271G, M295V
B26: ch4-4-20 P343S, P353L, S375I, S383N (antibody)
heavy: B1 heavy with V114A, P226S, P236L, S258I, S266N, H269Q, M295V
B27: ch4-4-20 P247L, A431V, S442F (antibody)
heavy: B1 heavy with V114A, P130L, H269Q, M295V, A314V, S325F
B28: ch4-4-20 N315I, V379M, T394M (antibody)
heavy: B1 heavy with V114A, N198I, V262M, H269Q, T277M, M295V
B29: ch4-4-20 T256S, V305I, K334E, N390S (antibody)
heavy: B1 heavy with V114A, T139S, V188I, K217E, H269Q, N273S, M295V
B30: ch4-4-20 K334E, T359N, T366S, Q386R (antibody)
heavy: B1 heavy with V114A, K217E, T242N, T249S, H269R, M295V
B31: ch4-4-20 F243L, R255L, E318K (antibody)
heavy: B1 heavy with V114A, F126L, R138L, E201K, H269Q, M295V
B32: ch4-4-20 K317N, F423-deleted (antibody)
chain: EPKSCDKTHTCPPCPAPELLGGPSVFLFPPKPKDTLMISRTPEVTCVVVDVSHEDPEVKFNWYVDGVEVHNAKTKPREEQYNSTYRVVSVLTVLHQDWLNGNEYKCKVSNKALPAPIEKTISKAKGQPREPQVYTLPPSREEMTKNQVSLTCLVKGFYPSDIAVEWESNGQPENNYKTTPPVLDSDGSFFLYSKLTVDKSRWQQGNVSCSVMHEALHNHYTQKSLSLSPGK
B33: ch4-4-20 T215P, K274N, A287G, K334N, L365V, P396L (antibody)
chain: PEPKSCDKTHTCPPCPAPELLGGPSVFLFPPKPKDTLMISRTPEVTCVVVDVSHEDPEVNFNWYVDGVEVHNGKTKPREEQYNSTYRVVSVLTVLHQDWLNGKEYKCKVSNKALPAPIENTISKAKGQPREPQVYTLPPSRDELTKNQVSVTCLVKGFYPSDIAVEWESNGQPENNYKTTPLVLDSDGSFFLYSKLTVDKSRWQQGNVFSCSVMHEALHNHYTQKSLSLSPGK
B34: ch4-4-20 C229Y, A287T, V379M, P396L, L443V (antibody)
heavy: B1 heavy with C112Y, V114A, A170T, V262M, H269Q, P279L, M295V, L326V
B35: ch4-4-20 K246I, Q362H, K370E (antibody)
heavy: B1 heavy with V114A, K129I, Q245H, K253E, H269Q, M295V
B36: ch4-4-20 K334E, E380D, G446V (antibody)
heavy: B1 heavy with V114A, K217E, E263D, H269Q, M295V, G329V
B37: ch4-4-20 V303I, V369F, M428L (antibody)
heavy: B1 heavy with V114A, V186I, V252F, H269Q, M295V, M311L
B38: ch4-4-20 K246E, V284M, V308A (antibody)
heavy: B1 heavy with V114A, K129E, V167M, V191A, H269Q, M295V
B39: ch4-4-20 E269K, K290N, Q311R, H433Y (antibody)
heavy: B1 heavy with V114A, E152K, K173N, Q194R, H269Q, M295V, H316Y
B40: ch4-4-20 P244A, K326I, C367R, S375I, K447T (antibody)
heavy: B1 heavy with V114A, P127A, K209I, C250R, S258I, H269Q, M295V, K330T

molecular target: T2, FcγRIIIA (form not stated) (UniProt P08637 17-208, limits assumed); assay: ELISA
T2 construct: also called FcγRIIIA (ELISA)
T2 sequence (P08637 17-208 F176V limits assumed, form in doubt): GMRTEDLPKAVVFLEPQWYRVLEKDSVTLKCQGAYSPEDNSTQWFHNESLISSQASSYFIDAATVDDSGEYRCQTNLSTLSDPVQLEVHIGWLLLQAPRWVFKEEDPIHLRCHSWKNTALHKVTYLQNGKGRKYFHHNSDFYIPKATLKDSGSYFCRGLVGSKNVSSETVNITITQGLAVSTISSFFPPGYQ

fold increase vs WT	fold decrease vs WT	fold vs WT	Binder
1.5 x			B1
0.5 x			B2
0.25 x			B3
0.5 x			B4
0.5 x			B5
0.5 x			B6
	0.5 x		B7
1 x			B8
2.5 x			B9
2.2 x			B10
1.5 x			B11
0.5 x			B12
2.8 x			B13
1.1 x			B14
1 x			B15
1.3 x			B16

fold increase vs WT	fold decrease vs WT	fold vs WT	Binder
	0.5 x		B17
0.75 x			B18
1.3 x			B19
4 x			B20
3 x			B21
1.6 x			B22
3 x			B23
1.75 x			B24
1.5 x			B25
0.5 x			B26
		1 x	B27
1 x			B28
1.5 x			B29
1 x			B30
1 x			B31

molecular target: T1, FcγRIIB (form not stated); assay: ELISA

fold increase vs WT	binding result	fold decrease vs WT	Binder
7 x			B32
4 x			B33
6 x			B1
0.75 x			B2
5 x			B3
10 x			B34
7 x			B4
	binds		B5
	binds		B6
7 x			B8
6 x			B9
		0.5 x	B35
3.7 x			B10
5 x			B11
5 x			B12
6.1 x			B13
4.8 x			B14
5 x			B15
10.8 x			B16

fold increase vs WT	binding result	fold decrease vs WT	Binder
		0.25 x	B17
		0.25 x	B18
6.7 x			B19
	no binding		B36
	no binding		B37
9.3 x			B20
	no binding		B38
2.5 x			B21
5.4 x			B22
	no binding		B39
3 x			B40
	binds		B23
1.5 x			B24
1 x			B25
6 x			B26
	binds		B27
9 x			B28
	binds		B29
	binds		B30
